{"source": "paper PMC13537762", "target": "respiratory complex III (mouse (endogenous in liver mitochondria))", "experiment": "native gel or EMSA; blue native PAGE (3-12% Bis-Tris) of digitonin-solubilised isolated liver mitochondria from control or CLS-LKO mice (standard chow); western blotting with a supercomplex antibody cocktail or subunit-specific antibodies"}
{"substance": "respiratory complex III", "values": [{"measurement": "stoichiometry N", "value": 2}]}
